# According to patent US20030139361A1, “Drug for gene therapy” (priority 2000, published 2003):
# Experiments:
# [1] = test system: spleen cells derived from PVG rat and mitomycin-treated DA rat; test: Lymphocyte mixed culture test (BrdU incorporation); assay type: cell-based; details: 4 days culture, BrdU 10 μM for last 16 hours; FIG. 2
# Procedure: To study the immunosuppressive activity of the human IDO protein prepared in Example 10, a lymphocyte mixed culture test was carried out. The spleen cells derived from a non-treated PVG rat and the spleen cells derived from a DA rat treated with 25 μg/ml of mitomycin (SIGMA-Aldrich Corporation) were seeded on a U bottom 96-well plate (NUNC Inc.) at 5×10^4/well and at 8×10^6/well, respectively. The IDO protein was then added and culturing was done for 4 days. Sixteen hours before the finish of culturing 5-bromo-2′deoxyuridine (BrdU) was added at a final concentration of 10 μM. The amount of BrdU incorporated into the intracellular DNA was quantified using a BrdU Labeling & Detection Kit III (Roche Diagnostics Inc.).
# [2] = test system: liver graft, DA rat to LEW rat (acute rejection); test: Immunosuppressive activity of the IDO protein using acute rejection model (sympatric liver transplantation, DA rat to LEW rat); assay type: in vivo; details: for average days of take (survival): consecutive days through the tail vein after liver transplantation, N = 6
# Procedure: As for the animals, male LEW and DA rats (200-350 g) were used. In the administration of the aforementioned gene therapeutic agents, immediately after Ringer's Solution (Fuso Pharmaceutical Co. Ltd.) was used in the operation and was allowed to perfuse the portal veins and the liver, the respective agents were infused from the portal veins into the liver at a speed of 5 ml/min. After allowing to stand in the culture solution for 30 minutes, the liver into which the gene had been transferred was grafted to the LEW rat.
# A model similar to that in Example 2 was used to judge the therapeutic effect of the IDO protein prepared in Example 5. The IDO protein was administered consecutive days through the tail vein immediately after the liver transplantation at a dosage of 300 μg/rat.
molecule,measurement,setting,value
"IDO protein: Recombinant murine indoleamine 2,3-dioxygenase protein prepared in Example 5 from E. coli (protein, UniProt P28776 1-407, looked up, recombinant, E. coli) Indoleamine 2,3-dioxygenase 1: MALSKISPTEGSRRILEDHHIDEDVGFALPHPLVELPDAYSPWVLVARNLPVLIENGQLREEVEKLPTLSTDGLRGHRLQRLAHLALGYITMAYVWNRGDDDVRKVLPRNIAVPYCELSEKLGLPPILSYADCVLANWKKKDPNGPMTYENMDILFSFPGGDCDKGFFLVSLLVEIAASPAIKAIPTVSSAVERQDLKALEKALHDIATSLEKAKEIFKRMRDFVDPDTFFHVLRIYLSGWKCSSKLPEGLLYEGVWDTPKMFSGGSAGQSSIFQSLDVLLGIKHEAGKESPAEFLQEMREYMPPAHRNFLFFLESAPPVREFVISRHNEDLTKAYNECVNGLVSVRKFHLAIVDTYIMKPSKKKPTDGDKSEEPSNVESRGTGGTNPMTFLRSVKDTTEKALLSWP",immunosuppressive activity (amount of BrdU incorporated into intracellular DNA),[1],immunosuppressive effect was observed
same,average days of take (survival),[2]; 50 μg/rat,10.6 days
same,average days of take (survival),[2]; 300 μg/rat,>30 days
same,days of take of the liver graft (in words),"[2]; 300 μg/rat, tail vein, consecutive days",marked increase
